For data set [1], the system named is 5TGM1 tumors. The data set can be described thus: Small animal PET/CT imaging in KaLwRij mice bearing 5TGM1 tumors. The conditions noted are these: 2 h post injection. The class given is in vivo, mouse. On the procedure: (§1) KaLwRij mice (from Dr. Claire M. Edwards, Vanderbilt University Medical Center Cancer Biology, Nashville, TN) were housed in ventilated cage racks and allowed food and water. 5TGM1 cells in log phase growth were prepared for injection by precipitation in a centrifuge followed by a wash step with sterile endotoxin-free PBS. Finally, the cells were re-suspended in endotoxin-free PBS at a concentration of 1×10^6 cells/mL and injected with or without matrigel, respectively, in the nape of the neck subcutaneously (s.c.) or intraperitoneally (i.p.) in a 100 µL volume in 3–5 week old mice. The tumors were allowed to grow for an average of 10 d.
(§2) Prior to small animal PET/CT imaging, mice were injected intravenously (tail vein) with ^64Cu-CB-TE1A1P-LLP2A (0.9 MBq (SA: 37 MBq/µg)). At 2 h post injection, mice were anaesthetized with 1–2% isoflurane and imaged with small animal PET (Focus 220 or Inveon (Siemens Medical Solutions, Knoxville,TN)), while the CT images were acquired with the Inveon. Static images were collected for 30 min and co-registered using the Inveon Research Workstation (IRW) software (Siemens Medical Solutions, Knoxville,TN). PET images were re-constructed with the maximum a posteriori (MAP) algorithm. The analysis of the small animal PET images was done using the IRW software. Regions of interest (ROI) were selected from PET images using CT anatomical guidelines and the activity associated with them was measured with IRW software. Maximum standard uptake values (SUVs) for both experiments were calculated using SUV = ([nCi/mL]x[animal weight (g)]/[injected dose (nCi)]). A set of mice was also imaged at 24 h post injection.
(§3) To test the ability of ^64Cu-CB-TE1A1P-LLP2A to image MM, small animal PET/CT imaging was conducted in KaLwRij mice bearing 5TGM1 murine myeloma tumors. The following i.p. and s.c. 5TGM1 models were used for the proof-of-principle imaging studies: 1) a non-matrigel assisted s.c. (plasmacytoma) tumor in the flank of the mouse (Figure 4B); 2) a matrigel assisted s.c. tumor in the flank of the mouse (Figure 4C); and 3) tumor cells injected in the peritoneal (i.p.) cavity (Figure 4D). Figure 4 contains […] (B-D) representative maximum intensity projection (MIP) small animal PET images using ^64Cu-CB-TE1A1P-LLP2A (0.9 MBq, 0.05 µg, 27 pmol, SA: 37 MBq/µg) at 2 h post injection in the various models compared to a non-tumor-bearing control mouse (Figure 4A). […] The SUV of the tumor shown in Figure 4D was not determined due to the large tumor size and overlap with the spleen and bladder. The heterogeneous distribution of the imaging agent in Figure 4D likely corresponds with the heterogeneity of the tumor mass. The uptake of ^64Cu-CB-TE1A1P-LLP2A in i.p. tumors was determined to be 14.9±2.6%ID/g by post PET biodistribution (2 h post injection). […] We are currently investigating the imaging of myeloma induced spleen pathology (splenomegaly) in orthotopic (i.v.) 5TGM1 mouse models of MM.

Assay in data set [2]: as above
In kind it is in vivo, mouse. As to conditions: KaLwRij, mouse, iv, total radioactivity. On the procedure: as §1, §2, §3

For data set [3], the system named is 5TGM1 cells. The experiment in a line: In vitro cell uptake assay, 5TGM1 cells. The class given is cell-based, mouse. On the procedure: (§4) Cell uptake assays were performed in murine 5TGM1 and human RPMI-8226 myeloma cells using ^64Cu-CB-TE1A1P-LLP2A to determine the sum of cell internalized and surface-bound fractions. Cells were grown in Iscoves MDM until 60−75% confluent, harvested by mechanical dissociation, and re-suspended in the binding medium (phosphate buffered saline [PBS], 0.1% bovine serum albumin [BSA] and 1 mM Mn^2+) in 1.5 mL microfuge tubes. A solution of ^64Cu-CB-TE1A1P-LLP2A (0.1 nM) was added to the cell suspension. The samples were incubated for 60 min in a cell incubator (37°C, 5% CO2). To determine the in vitro VLA-4 binding specificity of ^64Cu-CB-TE1A1P-LLP2A, samples were co-incubated with ∼200-fold excess of the unlabeled ligand, LLP2A. After incubation, the samples were centrifuged at 1,500 rpm for 5 min, and the radioactive medium was removed. Cell pellets were rinsed with ice cold binding buffer (500 µL) and centrifuged at 1,500 rpm for 3 min (2 X). The radioactivity in cell pellets was measured in a well counter (Packard II gamma counter).

Data set [4] relates to 5TGM1 tumors. The data set can be described thus: Tissue biodistribution in 5TGM1 tumor-bearing KaLwRij mice. In kind it is in vivo, mouse. As to conditions: 2 h, co-administered ~200-fold excess cold LLP2A, p<0.05, N = 4. On the procedure: as §1
(§5) 5TGM1 tumor bearing mice were sacrificed at 2 or 24 h after the injection of the radiopharmaceutical, ^64Cu-CB-TE1A1P-LLP2A. Blood, marrow, fat, heart, stomach, intestines, lungs, liver, spleen, kidneys, muscle, bone, pancreas, and tumor were harvested, weighed, and counted in the γ-counter. For the in vivo blocking studies, an additional group of mice was injected with the radiopharmaceutical premixed with ∼200-fold excess of LLP2A to serve as a blocking agent and sacrificed at the respective time point. The percent injected dose per gram of tissue (%ID/g) was determined by decay correction of the radiopharmaceutical for each sample normalized to a standard of known weight, which was representative of the injected dose.
(§6) Figure 3 Tissue biodistribution of ^64Cu-CB-TE1A1P-LLP2A in 5TGM1 s.c. tumor mice. Biodistribution of ^64Cu-CB-TE1A1P-LLP2A in 5TGM1 s.c. tumor mice (black bars). The open bars represent biodistribution in the presence of non-radioactive blocking agent (∼ 200 fold excess LLP2A). Mice were injected with ^64Cu-CB-TE1A1P-LLP2A (0.01 µg, 0.2 MBq, SA: 37 MBq/µg) and sacrificed at 2 h post injection. N = 4 mice/group.

Assay in data set [5]: as above
The conditions noted are these: mouse, iv, 0.01 ug, total radioactivity, 2 h post injection, s.c. 5TGM1 tumor KaLwRij mice, mean±SD, N = 4. The class given is in vivo, mouse. Here is the method: as §1, §5, §6

Data set [6] deals with RPMI-8226 cells. The experiment in a line: In vitro cell uptake assay, RPMI-8226 cells. As to conditions: 0.1 nM tracer, 37°C, 60 min, 1 mM Mn2+, ~200-fold excess LLP2A, P<0.0001. The class given is cell-based, human. Here is the method:
as §4
Binding of ^64Cu-CB-TE1A1P-LLP2A was evaluated in human MM cell line RPMI-8226 in vitro.

Data set [7] concerns the target T1, VLA-4 (α4β1 integrin) on 5TGM1 murine myeloma cells (Mus musculus, UniProt P09055+Q00651).
T1 construct: was incubated with ∼250,000 5TGM1 (∼ 0.41 mg protein) whole cells; endogenous in cells; host or cells: 5TGM1 murine myeloma cells (whole cells)
The experiment in a line: In vitro saturation binding assay on 5TGM1 whole cells. As to conditions: tracer 0.5–15.5 nM, 2 h at 4°C, 1 mM Mn2+, N = 3. On the procedure:
For saturation binding experiments, ^64Cu-CB-TE1A1P-LLP2A (0.5–15.5 nM) was incubated with ∼250,000 5TGM1 (∼ 0.41 mg protein) whole cells in 1.5 mL microfuge tubes for 2 h at 4°C in a total volume of 500 µL of binding medium (phosphate buffered saline [PBS], 0.1% bovine serum albumin [BSA] and 1 mM Mn^2+). The reaction tubes were put on a slow moving rotor during the 4°C incubation. After the incubation, samples were centrifuged at 1,500 rpm for 5 min, reaction buffer was removed by vacuum aspiration and the cells were washed two times with ice cold PBS. Non-specific binding was determined by conducting the assay in the presence of an excess (∼200 fold) unlabeled LLP2A. The radioactivity in the cell pellets was measured in a well counter (Packard II gamma counter). The specific binding was obtained by the subtraction of non-specific binding from total binding. The dissociation constant (Kd) and receptor density (Bmax) were estimated from the non-linear fitting of the specific binding versus the concentration of ^64Cu-CB-TE1A1P-LLP2A using Prism software (GraphPad, San Diego, CA).
The in vitro binding affinity of ^64Cu-CB-TE1A1P-LLP2A was investigated by determining the equilibrium dissociation constant (Kd) and the maximum specific binding (Bmax) of the radiolabeled conjugate to 5TGM1 cells in saturation binding assays. […]

Each structure is given as a SMILES string. “Also recorded” adds a separate entry of the source. Where two headings read alike, the source gives them in different places.

T1 sequence (Q00651 41-1039): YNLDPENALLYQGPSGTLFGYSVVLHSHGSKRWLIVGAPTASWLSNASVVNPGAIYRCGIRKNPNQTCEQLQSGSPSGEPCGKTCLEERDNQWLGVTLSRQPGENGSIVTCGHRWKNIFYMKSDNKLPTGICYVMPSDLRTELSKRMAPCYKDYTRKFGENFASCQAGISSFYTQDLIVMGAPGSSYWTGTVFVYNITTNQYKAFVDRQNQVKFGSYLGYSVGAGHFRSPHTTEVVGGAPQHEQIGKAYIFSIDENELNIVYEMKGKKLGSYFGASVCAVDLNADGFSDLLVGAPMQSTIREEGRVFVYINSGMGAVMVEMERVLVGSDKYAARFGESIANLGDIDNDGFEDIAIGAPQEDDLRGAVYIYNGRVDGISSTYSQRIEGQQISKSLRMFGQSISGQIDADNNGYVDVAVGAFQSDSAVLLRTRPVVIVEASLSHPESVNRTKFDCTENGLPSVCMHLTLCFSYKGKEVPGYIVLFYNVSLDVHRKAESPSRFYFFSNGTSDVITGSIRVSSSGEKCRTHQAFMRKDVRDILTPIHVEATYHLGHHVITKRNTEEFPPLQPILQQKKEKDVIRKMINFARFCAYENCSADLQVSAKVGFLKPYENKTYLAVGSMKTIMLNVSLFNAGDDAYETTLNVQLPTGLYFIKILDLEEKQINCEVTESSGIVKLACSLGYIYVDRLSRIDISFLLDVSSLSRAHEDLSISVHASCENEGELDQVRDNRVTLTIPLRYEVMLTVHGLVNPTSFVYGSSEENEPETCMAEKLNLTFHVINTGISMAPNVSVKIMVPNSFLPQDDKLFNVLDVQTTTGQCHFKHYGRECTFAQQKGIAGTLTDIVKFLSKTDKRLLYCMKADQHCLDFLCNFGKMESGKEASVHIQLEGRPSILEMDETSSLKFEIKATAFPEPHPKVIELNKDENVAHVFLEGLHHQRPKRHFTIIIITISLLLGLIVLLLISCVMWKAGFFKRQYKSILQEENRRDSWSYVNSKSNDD
T1 sequence (P09055 21-798): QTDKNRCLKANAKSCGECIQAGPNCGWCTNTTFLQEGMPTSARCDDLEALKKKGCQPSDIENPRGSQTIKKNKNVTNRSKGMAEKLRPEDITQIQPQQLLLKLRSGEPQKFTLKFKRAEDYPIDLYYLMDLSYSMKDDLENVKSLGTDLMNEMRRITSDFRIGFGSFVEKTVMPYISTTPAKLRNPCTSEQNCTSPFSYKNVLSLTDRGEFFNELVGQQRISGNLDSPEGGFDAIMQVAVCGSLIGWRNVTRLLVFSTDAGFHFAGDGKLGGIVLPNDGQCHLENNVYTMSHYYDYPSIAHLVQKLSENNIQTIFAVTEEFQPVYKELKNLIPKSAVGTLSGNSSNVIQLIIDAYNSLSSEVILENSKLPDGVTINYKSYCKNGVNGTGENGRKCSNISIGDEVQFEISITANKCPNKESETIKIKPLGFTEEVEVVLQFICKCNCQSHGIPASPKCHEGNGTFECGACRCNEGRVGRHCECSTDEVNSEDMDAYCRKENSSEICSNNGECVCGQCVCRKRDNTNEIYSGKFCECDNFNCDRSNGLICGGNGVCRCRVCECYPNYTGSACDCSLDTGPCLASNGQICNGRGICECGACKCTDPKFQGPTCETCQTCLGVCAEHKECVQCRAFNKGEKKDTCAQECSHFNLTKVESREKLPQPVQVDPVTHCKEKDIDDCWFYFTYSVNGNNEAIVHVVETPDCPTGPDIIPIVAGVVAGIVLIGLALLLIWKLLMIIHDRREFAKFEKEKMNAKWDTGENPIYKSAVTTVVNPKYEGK

As for `Cc1ccccc1NC(=O)Nc1ccc(CC(=O)N[C@@H](CCCCNC(=O)/C=C/c2cccnc2)C(=O)N[C@@H](CCCC(=O)O)C(=O)NC2(C(=O)NCCOCCOCCNC(=O)CCC(=O)NCCOCCOCCNC(=O)CCC(=O)N[C@@H](CCCCNC(=O)CN3CCCN4CCN(CCCN(CP(=O)(O)O)CC4)CC3)C(N)=O)CCCCC2)cc1` [64Cu-CB-TE1A1P-LLP2A, metal not drawn], in data set [1] (non-tumor KaLwRij control mouse), the “Spleen SUV, non-tumor bearing mouse” value amounted to 2.2. In data set [1] (~200-fold excess LLP2A, P<0.05), the “Reduction in tumor SUV in the presence of blocking agent” value was found to be 3 fold. Besides, the “Tumor SUV, early stage non-palpable s.c. 5TGM1 tumor without matrigel” value in data set [1] (representative mouse, Figure 4B) is listed as 2.24. In addition, the “Tumor SUV, matrigel assisted s.c. 5TGM1 tumor” value in data set [1] (representative mouse, Figure 4C) worked out at 6.2. The SUV at 2 h in data set [2] (spleen, 0.05 ug, 2 h post injection, 5TGM1 tumor bearing mice, read-out: Spleen SUV, tumor bearing mice) turned out to be 3.3 SUV; in data set [2] (tumor, 0.05 ug, 2 h post injection, 0.9 MBq, 0.05 µg, 27 pmol, 5TGM1 tumors, mean±SD, N = 4, read-out: Tumor SUV (averaged maximum SUV from MIP PET images), no block) it was 6.2 ± 1.1 SUV; in data set [2] (tumor, 2 h post injection, ~200-fold excess LLP2A, mean±SD, N = 4, P<0.05, read-out: Tumor SUV in the presence of blocking agent), 2.3 ± 0.4 SUV. Besides, the tissue to tissue ratio at 2 h in data set [2] (tumor and muscle, 0.9 MBq, 2 h post injection, calculated from MIP image SUVs) is 28 ± 6. Further, the tissue to tissue ratio at 24 h in data set [2] (tumor and muscle, 0.9 MBq, 24 h post injection, calculated from MIP image SUVs) was 161 ± 41. Also, the “Cell uptake (internalized + surface-bound), block vs. non-block” value in data set [3] (0.1 nM tracer, 60 min, 37°C, PBS/0.1% BSA/1 mM Mn2+, with and without ~200-fold excess LLP2A, P<0.0001) is “receptor specific uptake; also recorded: significantly different; also recorded: significantly reduced”. In addition, in data set [3] (without Mn2+, data not shown), the “Cell uptake in the absence of receptor activating cation Mn2+” value is recorded as “much lower binding”. Moreover, the “Uptake in tumor, spleen and bone in the presence of blocking agent” value in data set [4] is reported as “significantly reduced”. Also, the tissue uptake at 2 h in data set [5] (i.v., 0.01 µg, 0.2 MBq, read-out: Tumor uptake (s.c. 5TGM1)) came to 12 ± 4.5 %ID/g; in data set [5] (spleen, read-out: Spleen uptake), 8.8 ± 1 %ID/g. In data set [6], the “Cell uptake in RPMI-8226 cells, with vs. without excess LLP2A” value is “significantly reduced; also recorded: significantly blocked”. Besides, in data set [7], the “Bmax (maximum specific binding, receptor density)” value is reported as 136 pmol/mg.

These data come from PMC3568146, “Very Late Antigen-4 (α4β1 Integrin) Targeted PET Imaging of Multiple Myeloma” (PLoS ONE, 2013).
